In test [1] the target is T1, CA/09 H1 HA: hemagglutinin of A/California/7/2009 (H1N1) (Influenza A virus A/California/07/2009 …, UniProt C3W5X2, strain).
T1 construct: source: insect cells, expressed and purified (Supplementary Methods)
The test is described as follows: ELISA. To be noted: one partner purified. Background: An ELISA detects its analyte on a solid surface through an enzyme-linked reagent.

In test [2] the target is T1, CA/09 H1 HA: hemagglutinin of …. The test is described as follows: SPR. The note with it: both partners purified.
The target of test [3] is BS/07 H1 HA: hemagglutinin of A/Brisbane/59/2007(H1N1) (Influenza A virus A/Brisbane/59/2007 …, strain). The test is described as follows: ELISA.

B1: H123#437 scFv (scFv, V domains shown)
VH: QVQLVQSGAEVKKPGSSVKVSCTSSEFMFPAFAISWVRQAPGQGLEWLGGISPMFDHPNYAQKFQGRVTITADQSTRTAYMDLRSLRSEDTAVYYCARSPTYLPSGVFDHWGQGTLVTVSS
VL: QPGLTQPPSVSKGLRQTATLTCTGNSNNVGNQGAAWLQQHQGHPPKLLSYRNNDRPSGISERFSASRSGNTASLTITGLQPEDEADYYCSTWDSSLSAVVFGGGTKLTVL
notes: source: E. coli ER2738, phage-free soluble scFv in filtered culture supernatant; not shown: E-tag, C-terminal, kept
In the case of B1, in test [1], the “normalized binding affinity (relative to F10 scFv)” value is 5.2.

B2: H123#437 IgG (antibody, V domains shown)
VH: QVQLVQSGAEVKKPGSSVKVSCTSSEFMFPAFAISWVRQAPGQGLEWLGGISPMFDHPNYAQKFQGRVTITADQSTRTAYMDLRSLRSEDTAVYYCARSPTYLPSGVFDHWGQGTLVTVSS
VL: QPGLTQPPSVSKGLRQTATLTCTGNSNNVGNQGAAWLQQHQGHPPKLLSYRNNDRPSGISERFSASRSGNTASLTITGLQPEDEADYYCSTWDSSLSAVVFGGGTKLTVL
As for B2, in test [2], the Kd (usually a measure of binding affinity in units of concentration) amounted to 0.091 nM, the koff (usually the first-order rate constant of dissociation) worked out at 3.52e-05 s⁻¹ and the kon (usually the rate constant with which the complex forms) came to 386000 M⁻¹ s⁻¹. In addition, the binding result in test [3] (both partners purified) is given as “binds”.

B3: F10 scFv (scFv, V domains shown)
VH: QVQLVQSGAEVKKPGSSVKVSCTSSEVTFSSFAISWVRQAPGQGLEWLGGISPMFGTPNYAQKFQGRVTITADQSTRTAYMDLRSLRSEDTAVYYCARSPSYICSGGTCVFDHWGQGTLVTVSS
VL: QPGLTQPPSVSKGLRQTATLTCTGNSNNVGNQGAAWLQQHQGHPPKLLSYRNNDRPSGISERFSASRSGNTASLTITGLQPEDEADYYCSTWDSSLSAVVFGGGTKLTVL
notes: not shown: E-tag, C-terminal, kept
In the case of B3, in test [3] (one partner purified), the binding result was “binds”.

B4: F10 IgG (antibody, V domains shown)
VH: QVQLVQSGAEVKKPGSSVKVSCTSSEVTFSSFAISWVRQAPGQGLEWLGGISPMFGTPNYAQKFQGRVTITADQSTRTAYMDLRSLRSEDTAVYYCARSPSYICSGGTCVFDHWGQGTLVTVSS
VL: QPGLTQPPSVSKGLRQTATLTCTGNSNNVGNQGAAWLQQHQGHPPKLLSYRNNDRPSGISERFSASRSGNTASLTITGLQPEDEADYYCSTWDSSLSAVVFGGGTKLTVL
In the case of B4, in test [2], binding was put at a Kd of 0.046 nM, the koff amounted to 1.11e-05 s⁻¹ and the kon came out at 240000 M⁻¹ s⁻¹. The binding result in test [3] (both partners purified) is on record as “binds”.

The record behind these values is PMC4601012 (Scientific Reports, 2015).
